# Reference: the RNAGym collection of RNA variant scans (doi:10.1073/pnas.2313332121)
# B1: TPR t1 (parent)
# chain: GACCAAUCUGCCCUCAGAGCUCGAGAACAUCUUCGGAUGCAGAGGAGGCAGGCUUCGGUGGCGCGAUAGCGCCAACGUCCUCAACCUCCAAUGCAUCCCACCACAUGAUGAUGCCUGAAGAGCCUUGGUUUUUUG
# Variants of: B1
# Test: polymerase ribozyme fitness, log enrichment relative to wild type (log ratio); higher = more active; in vitro selection for triplet polymerase activity
# In short: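 Libraries of mutants in each subunit of a heterodimeric triplet polymerase ribozyme were generated by PCR and transcribed. In triplicate, each went through one in vitro selection round: annealing with biotinylated primer, partner subunit and triplets; frozen incubation at −7 °C; gel excision of extended constructs; streptavidin-bead capture; RT-PCR. Fitness, taken from Illumina sequencing of input and output libraries, is the logarithm of a genotype's enrichment over wild-type enrichment, averaged across replicates with inverse-variance weights. The logarithm is base 2, and genotypes needed ≥10 input reads and ≥1 read per output to be kept.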
row,Variant,polymerase ribozyme fitness (log ratio)
1,GACCAAUCUGCCCUCAGAGCUCGAGAACAUCUUCGGAUGCAGAAGAGGCAGGCUUCGGUGGCGCGAUAGCUCCAACGUCCUCAACCUCCAAUGCAUCCCACCACAUGAUGAUGCCUGAAGAGCCUUGGUUUUUUG [G44A G71U],-1.33
2,GACCAAUCUGCCCUCAGAGCUCGAGAACAUCUUCGGAUGCAGAAGAGGCAGGCUUCGGUGGCGCGAUAGCGCCAACGUCCUCAACCUCCAAUGCAUCCCACCACAUGAUCAUGCCUGAAGAGCCUUGGUUUUUUG [G44A G110C],-4.8
3,GACCAAUCUGCCCUCAGAGCUCGAGAACAUCUUCGGAUGCAGAAGAGGCAGGCUUCGGUGGCACGAUAGCGCCAACGUCCUCAACCUCCAAUGCAUCCCACCACAUGAUGCUGCCUGAAGAACCUUGGUUUUUUG [G44A G63A A111C G122A],-5
4,GACCAAUCUGCCCUCAGAGCUCGAGAACAUCUUCGGAUGCAGAAGAGGCAGGCUUCGGUGGCGCGAUAGCGCCAACGUCCUCAACCUCCAAUACAUCCCACCACAUGAUGAUGCCUGAAGAGCCUUGGUUUUUUG [G44A G93A],-1.2
5,GACCAAUCUGCCCUCAGAGCUCGAGAACAUCUUCGGAUGCAGAAGAGGCAGGCUUCGGUGGCGCGAUAGCGCCAACGUCCUCAACCUCCAAUCCAUCCCACCACAUGAUGAUGCCUGAAGAGCCUUGGUUUUUUG [G44A G93C],-2.23
6,GACCAAUCUGCCCUCAGAGCUCGAGAACAUCUUCGGAUGCAGAAGAGGCAGGCUUCGGUGGCGCGAUAGCACCAACGUCCUCAACCGCCCAUGCAUCCCACCACAUGAUGAUGCCUGAAGAGCCUUGGUUUUUUU [G44A G71A U87G A90C G135U],-2.38
7,GACCAAUCUGCCCUCAGAGCUCGAGAACAUCUUCGGAUGCAGAAGAGGCAGGCUUCGGUGUCGCGAUAGCGCCAACGUCCUCAACCUCCAAUGCAUCCUACCACAUGAUGAUGCCUGAAGAGCCUUGGUUUUUUG [G44A G61U C99U],-4.04
8,GACCAAUCUGCCCUCAGAGCUCGAGAACAUCUUCGGAUGCAGAAGAGGCAGGCUACGGUGGCGCGAUAGUGCCAACGUCCUCAAGCUCCAAUGCAUCCCACCACAUGAUGAUACCUGAAGAGCCUUGGUUUUUUG [G44A U55A C70U C85G G113A],-4.29
9,GACCAAUCUGCCCUCAGAGCUCGAGAACAUCUUCGGAUGCAGAAGAGGCAUGCUUCGGUGGCGCGAUGGCGCCAACGUCCUCAACCUCCAAUGCAUCCCACCACAUGAUGAUGCCUGAAGGGCCUUGGUUUUUUG [G44A G51U A68G A121G],-5.63
10,GACCAAUCUGCCCUCAGAGCUCGAGAACAUCUUCGGAUGCAGAAGAGGCAGGCUUCGGUCGCGCGAUAGCGCCAACGUCCUCAACCUCCAAUGCAUCCCACCACAUGAUGUUGCCUGAAGAGCCUUGGUUUUUUG [G44A G60C A111U],-5.02
11,GACCAAUCUGCCCUCAGAGCUCGAGAACAUCUUCGGAUGCAGAAGAGGCAGGCUUCGGUGCCGCGAUAGCGCCAACGCGCUCAACCUCCAAUGCAUCCCACCACAUGAUGAGGCCUGAAGAGCCUUGGUUUUGUG [G44A G61C U78C C79G U112G U133G],-3.14
12,GACCAAUCUGCCCUCAGAGCUCGAGAACAUCUUCGGAUGCAGAAGAGGCAGGCUUCGGUGGCGCGAUAGCGCCAACGUCCUCAACCUCCAAUGCAUCCCACCACAUGAUGAUGCCUGAAGAGCUUUGGUUUUUUG [G44A C124U],0.684
13,GACCAAUCUGCCCUCAGAGCUCGAGAACAUCUUCGGAUGCAGAAGAGGCAUGCUUCGGUGGCGCGAUAGCGCCAACGUCCUCAACCUCCAAUGCAUCCCACCACAUGAUGAUGCCUGAAGGGCCUUGGUUUUUUG [G44A G51U A121G],-3.43
14,GACCAAUCUGCCCUCAGAGCUCGAGAACAUCUUCGGAUGCAGAAGAGGCAGGCUUCGUUGGCGCGAUAGCGCCAACGUCCACAACCUCCAAUGCAUCCCACCACAUGAUGAUGCCUGAAGAGCCUUGGUUUUUUG [G44A G58U U81A],-1.79
15,GACCAAUCUGCCCUCAGAGCUCGAGAACAUCUUCGGAUGCAGAAGAGGCAGGCUUCGGUGGCGCGAUAUCGCCAACGUCCUCAACCUCCAAUGCAUCCCACCAAAUGAUGAUGCCUGAAGAGCCUUGGUUUUUUG [G44A G69U C104A],-1.28
16,GACCAAUCUGCCCUCAGAGCUCGAGAACAUCUUCGGAUGCAGAAGAGGCAAGCUUCGGUGGCGCGAUAGCGCCAAAGUCCUCAACCUCCAAAGCAUCCCACCACAUGAUGAUGCCUCAAGAGCCUUGGUUUUUUG [G44A G51A C76A U92A G117C],-6.37
17,GACCAAUCUGCCCUCAGAGCUCGAGAACAUCUUCGGAUGCAGAAGAGGCAGGCUACGGUGGCGCGAUAGCGCCAACGUCCUCAAGCUCCAAUGCAUCCCACCACAUGAUGAUACCUGAAGAGCCUUGGUUUUUUG [G44A U55A C85G G113A],-3.2
18,GACCAAUCUGCCCUCAGAGCUCGAGAACAUCUUCGGAUGCAGAAGAGCCAGGCUUCGGUGGCGCGAUAGCGCCAACGUCCUCAACCUCCAAUGCAUCCCACUACAUGAUGAUGCCUGAAGAGCAUUGGUUUUUUG [G44A G48C C102U C124A],-1.74
19,GACCAAUCUGCCCUCAGAGCUCGAGAACAUCUUCGGAUGCAGAAGAGGCAGGCUUCGGUCGCGCGAUAGCGCCAACGUCCUCAACCUCCAAUGCAUCCCACCACAUGAUGAUGACUGAAGAGCCUUGGUUUUUUG [G44A G60C C114A],-2.55
20,GACCAAUCUGCCCUCAGAGCUCGAGAACAUCUUCGGAUGCAGAAGAGGCAGGCUUCGGUGGCACGAUAGCGCCAACGUCCUCAACCUCCAAUGCAUCCCACCACAUGAUGAUGCCUGAAGAACCUUGGUUUUUUG [G44A G63A G122A],-2.73
21,GACCAAUCUGCCCUCAGAGCUCGAGAACAUCUUCGGAUGCAGAAGAUGCAGGCUUCGGUGGCGCGAUAGCGCCAACGUCCUCAACCUCCAAUGCAUCCCACCACAUGAUGAUGCCUGAAGAGCCUUGGUUUUUUG [G44A G47U],-2.36

row,Variant,polymerase ribozyme fitness (log ratio)
1,GACCAAUCUGCCCUCAGAGCUCGAGAACAUCUUCGGAUGCAGAAGAGGCAGGCUUCGGUUGCGCGAUAGCGCCAACGUCCUCAACCUCCAAUGCAUCCCACCACAUGUUGAUGCAUGAAGUGCCUUGGUUUUUUG [G44A G60U A108U C115A A121U],-4.86
2,GACCAAUCUGCCCUCAGAGCUCGAGAACAUCUUCGGAUGCAGAAGAGGCAGGCUUCGGUAGCGCGAUAGCGCCAACGUCCUCAACCUCCAAUGCAUCCCACCACAUGAUGAUGCCUGAAGCUCCUUGGUUUUUUG [G44A G60A A121C G122U],-1.92
3,GACCAAUCUGCCCUCAGAGCUCGAGAACAUCUUCGGAUGCAGAAGAGGCACGCUUCGGUGGGGCGAUAGCGCCAACGUCCUCAAGCUCCAAUGCAUCCCACCACAUGAUCAUGCCUGAAGAGCCUUGGUUUUUUG [G44A G51C C62G C85G G110C],-7.25
4,GACCAAUCUGCCCUCAGAGCUCGAGAACAUCUUCGGAUGCAGAAGAGGCAGGCUUCGGUUGCGCGAUAGCGCCAACGUCCUCAACCUCCAAUGCAUCCCACCACAUGGUGAUGCCUGAAGAGCCUUGGUUUUUUG [G44A G60U A108G],-2.88
5,GACCAAUCUGCCCUCAGAGCUCGAGAACAUCUUCGGAUGCAGAAGAGCCAGGCUUCGGUUGCGCGAUAGCGCCAACGUCCUCAACCUCCAAUGCAUCCCACCACAUGAUGAUGCCUGAAGAGCCUUGGUUUUUUG [G44A G48C G60U],-0.957
6,GACCAAUCUGCCCUCAGAGCUCGAGAACAUCUUCGGAUGCAGAAUAGGCAGGCUUCGGUGGCGCGAUAGCGCCAACGUCCUCAACCUCCAAUACAUCCCACCACAUGAUGAUGCCUGAAGAGCCUUGGUUUUUUG [G44A G45U G93A],-3.07
7,GACCAAUCUGCCCUCAGAGCUCGAGAACAUCUUCGGAUGCAGAAGAGGCAGGCUUCGGUGGCUCGAUAGCGCCAACGUCCUCAACCUCCAAUGCAUCCCACCACAUGAUGAUGCCUGAAGAGCCUUGGUUUUUUG [G44A G63U],-1.78
8,GACCAAUCUGCCCUCAGAGCUCGAGAACAUCUUCGGAUGCAGAAGAGGCAGGCAUCGGUGGAGCGAUAGCGCCAACGUCCUCAACCUCCAAUGCAUCCCACCACAAGAUGAUGCCUGAAGAGCCUUGGUUUUUUG [G44A U54A C62A U106A],-3.38
9,GACCAAUCUGCCCUCAGAGCUCGAGAACAUCUUCGGAUGCAGAAGAGGCAGGCUUCGGUGGCGCGAUAGCGCCAACGUCCUCAACCUCCAAUGCAUCCCACCACAUGAUGAUGCCUGAAGAACCUUCGUUUUUUG [G44A G122A G127C],-2.85
10,GACCAAUCUGCCCUCAGAGCUCGAGAACAUCUUCGGAUGCAGAAGAGGCAGGCUUCGGUGGCGCGAUAGCGCCAACGUCCUCAACCUCCAAUGCAUCCCACCACAUGAUGAUGCCUUAAGAGCCUUGGUUUUUUG [G44A G117U],-3.1
11,GACCAAUCUGCCCUCAGAGCUCGAGAACAUCUUCGGAUGCAGAAGAGGCAGGCUUCUGUGGCGCGAUAGCGCCAACGUCCUCAAUCUCCAAUGCAUCCCACCAAAUGAAGAUGCCUGAACAGCCUUGGUUUUUUG [G44A G57U C85U C104A U109A G120C],-4.62
12,GACCAAUCUGCCCUCAGAGCUCGAGAACAUCUUCGGAUGCAGAAGAGGCAGGCUGCGGUGGCCCGAUAGCGCCAACGUCCUCAACCUCCAAUGCAUCCCACCACAUGAUGAUGCCUGAAGAGCCUUGGUUUUUUG [G44A U55G G63C],-0.567
13,GACCAAUCUGCCCUCAGAGCUCGAGAACAUCUUCGGAUGCAGAAGAGCCAGGCUUCGGUGGCGCGAUAGCGCCAACGUCCUCAACCUCCAAUGCAUCCCACCACAUGAUGAUGCCUGAAGAGCCUUGGUUUUUUG [G44A G48C],-1.44
14,GACCAAUCUGCCCUCAGAGCUCGAGAACAUCUUCGGAUGCAGAAGAGGCAGGCUUCGGUGGCGCGAUAGCGCCAACGUCCUCAACCUCCAAUGCAUCCCACCACAUGAUGAUCCCUGAAGAGCCUUGGUUUUUUG [G44A G113C],-3.16
15,GACCAAUCUGCCCUCAGAGCUCGAGAACAUCUUCGGAUGCAGAAGAGUCAGGCUUCGGUGGCGCGAUAGCGCCAACGUCCUCAACCUCCAAUGCAUCCCACCACAUGAUGAUGCCUGAAGAGCCGUGGUUUUUUG [G44A G48U U125G],-2.23
16,GACCAAUCUGCCCUCAGAGCUCGAGAACAUCUUCGGAUGCAGAAGAGGCAAGCUUCGGUGGCGCGAUAGCGCCAACGUCUUCAACAUCCAAUGCAUCCCACCACAUGAUGAUGCCUGAAGAGCGUUGGUUUUUUG [G44A G51A C80U C86A C124G],-0.462
17,GACCAAUCUGCCCUCAGAGCUCGAGAACAUCUUCGGAUGCAGAAGAGGCAGGCUUCGGUAGCGCGAUGGCGCCAACGUCCUCAAUCUCCAAUGCAUCCCACCACAAGAUGAUGCCUGAAGAGCCUUGGCUUUUUG [G44A G60A A68G C85U U106A U129C],-5.96
18,GACCAAUCUGCCCUCAGAGCUCGAGAACAUCUUCGGAUGCAGAAGAGGCAGGCUUCGGUGGCGCGAUAACGCCAACGUCCUCAACCUCCAAUGUAUCCCACCACAUGAUGAUGCCUGAAGAGCCUUGGUUUUUUG [G44A G69A C94U],-4.26
19,GACCAAUCUGCCCUCAGAGCUCGAGAACAUCUUCGGAUGCAGAAGAGGCAGGCUUCGGUGGCGCGAUAGCGCCAACGACCUCAACCUCCAAUUCAUCCCACCACAUGAUGAUGCCUGAAGAGCCUUGGUUUUUUG [G44A U78A G93U],-1.85
20,GACCAAUCUGCCCUCAGAGCUCGAGAACAUCUUCGGAUGCAGAAGAGGCAGGCUUCGGUGGCGCGAUACCGCCAACGUCCUCAACCUCUAAUGCAUCCCACCACAUGAUGAUGCCUGUAGAGCGUUCGUUUUUUG [G44A G69C C89U A118U C124G G127C],-0.292
21,GACCAAUCUGCCCUCAGAGCUCGAGAACAUCUUCGGAUGCAGAAGAGGCAGGCUUCGGUGGCGCGAUAGCGCCAACGGCCUCAACCUCCAAUGCAUCCCACCACAUGAUGAUGCCUGAAGAGCCUUGGUUUUUUG [G44A U78G],-1.09
